Laboratory results from patent US20020147129A1.

Target: embryonic chicken AT4 receptor (chicken)
Test: competition for [125I]Ang IV binding, E13 chicken chorioallantoic membranes

Sequence of embryonic chicken AT4 receptor (chicken) (F1NNE7 entry or part of it): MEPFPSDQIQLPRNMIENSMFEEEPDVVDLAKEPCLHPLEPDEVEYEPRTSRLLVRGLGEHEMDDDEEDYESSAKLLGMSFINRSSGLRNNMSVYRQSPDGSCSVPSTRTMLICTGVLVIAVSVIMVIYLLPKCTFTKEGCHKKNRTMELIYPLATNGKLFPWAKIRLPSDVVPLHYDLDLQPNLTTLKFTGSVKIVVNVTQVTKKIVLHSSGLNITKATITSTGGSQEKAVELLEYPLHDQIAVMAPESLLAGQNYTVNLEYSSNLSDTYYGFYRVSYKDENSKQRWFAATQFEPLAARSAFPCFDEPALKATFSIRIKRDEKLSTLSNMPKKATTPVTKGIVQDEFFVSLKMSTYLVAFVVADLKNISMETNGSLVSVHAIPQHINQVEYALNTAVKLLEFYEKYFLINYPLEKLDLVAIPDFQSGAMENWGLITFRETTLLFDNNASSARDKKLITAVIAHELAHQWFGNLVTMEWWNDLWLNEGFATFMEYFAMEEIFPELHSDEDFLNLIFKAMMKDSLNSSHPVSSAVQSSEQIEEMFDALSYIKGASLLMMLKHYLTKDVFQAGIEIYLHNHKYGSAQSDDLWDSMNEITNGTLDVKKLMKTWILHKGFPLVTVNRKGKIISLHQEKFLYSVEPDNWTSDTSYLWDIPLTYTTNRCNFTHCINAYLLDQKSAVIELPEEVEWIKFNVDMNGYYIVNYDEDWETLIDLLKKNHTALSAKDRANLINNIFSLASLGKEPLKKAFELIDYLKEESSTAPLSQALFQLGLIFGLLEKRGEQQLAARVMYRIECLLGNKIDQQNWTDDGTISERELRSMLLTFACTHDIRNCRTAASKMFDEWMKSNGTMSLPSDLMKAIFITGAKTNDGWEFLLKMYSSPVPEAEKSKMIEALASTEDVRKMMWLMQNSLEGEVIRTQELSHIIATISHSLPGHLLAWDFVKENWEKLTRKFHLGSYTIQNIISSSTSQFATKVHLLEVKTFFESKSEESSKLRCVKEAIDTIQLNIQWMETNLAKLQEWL

## Nle^1-Y-I-amide (peptide)
  IC50: 2200 nM
